Measured values published in publication PMC4434323.

Tests used:
[1] = molecular target: T1, dmd-6 (F13G11.1) (Caenorhabditis elegans) (UniProt O62159)
T1 sequence: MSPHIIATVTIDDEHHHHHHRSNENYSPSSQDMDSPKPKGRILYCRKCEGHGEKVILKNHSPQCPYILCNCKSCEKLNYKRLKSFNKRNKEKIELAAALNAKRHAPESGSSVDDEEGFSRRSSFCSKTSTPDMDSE

[2] = molecular target: T2, mab-23 (C32C4.5) (Caenorhabditis elegans) (UniProt G5ECK3)
T2 sequence: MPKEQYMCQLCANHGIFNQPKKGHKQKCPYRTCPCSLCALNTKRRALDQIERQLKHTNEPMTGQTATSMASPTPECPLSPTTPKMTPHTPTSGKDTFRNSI

[3] = molecular target: T3, Y61A9LA.9 (Y61A9LA.9) (Caenorhabditis elegans) (UniProt Q9N312)
T3 sequence: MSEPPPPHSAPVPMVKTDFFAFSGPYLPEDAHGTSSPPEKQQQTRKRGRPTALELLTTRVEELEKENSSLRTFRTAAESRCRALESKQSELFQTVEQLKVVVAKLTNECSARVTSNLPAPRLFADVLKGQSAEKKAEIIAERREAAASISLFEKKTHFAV

[4] = molecular target: egl-13 (T22B7.1) (Caenorhabditis elegans) (UniProt Q23045)
[5] = tested on: scrt-1 (C55C2.1) (Caenorhabditis elegans)
[6] = molecular target: T4, K02D7.2 (K02D7.2) (Caenorhabditis elegans) (UniProt O45103)
T4 sequence: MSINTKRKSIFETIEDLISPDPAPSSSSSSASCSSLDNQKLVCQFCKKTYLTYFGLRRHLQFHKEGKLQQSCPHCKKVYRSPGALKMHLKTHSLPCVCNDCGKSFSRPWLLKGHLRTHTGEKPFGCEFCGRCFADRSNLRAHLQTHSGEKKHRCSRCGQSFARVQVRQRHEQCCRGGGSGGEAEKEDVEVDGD

[7] = molecular target: T5, elt-6 (F52C12.5) (Caenorhabditis elegans) (UniProt G5EGN3)
T5 sequence: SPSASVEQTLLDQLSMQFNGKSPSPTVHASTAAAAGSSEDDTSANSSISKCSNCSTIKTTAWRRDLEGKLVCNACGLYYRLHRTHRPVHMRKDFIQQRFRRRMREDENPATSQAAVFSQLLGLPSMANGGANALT

[8] = molecular target: T6, elt-7 (C18G1.2) (Caenorhabditis elegans) (UniProt O61924)
T6 sequence: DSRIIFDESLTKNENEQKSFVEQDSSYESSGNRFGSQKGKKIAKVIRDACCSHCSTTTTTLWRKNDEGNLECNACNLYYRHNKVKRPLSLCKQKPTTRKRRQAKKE

[9] = molecular target: T7, daf-19 (F33H1.1) (Caenorhabditis elegans) (UniProt Q09555)
T7 sequence: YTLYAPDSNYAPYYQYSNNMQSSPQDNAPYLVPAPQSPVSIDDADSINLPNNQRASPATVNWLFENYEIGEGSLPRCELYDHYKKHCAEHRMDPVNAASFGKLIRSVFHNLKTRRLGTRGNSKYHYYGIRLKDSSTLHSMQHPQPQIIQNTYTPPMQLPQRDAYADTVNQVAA

[10] = molecular target: T8, tbx-33 (Y66A7A.8) (Caenorhabditis elegans) (UniProt O45291)
T8 sequence: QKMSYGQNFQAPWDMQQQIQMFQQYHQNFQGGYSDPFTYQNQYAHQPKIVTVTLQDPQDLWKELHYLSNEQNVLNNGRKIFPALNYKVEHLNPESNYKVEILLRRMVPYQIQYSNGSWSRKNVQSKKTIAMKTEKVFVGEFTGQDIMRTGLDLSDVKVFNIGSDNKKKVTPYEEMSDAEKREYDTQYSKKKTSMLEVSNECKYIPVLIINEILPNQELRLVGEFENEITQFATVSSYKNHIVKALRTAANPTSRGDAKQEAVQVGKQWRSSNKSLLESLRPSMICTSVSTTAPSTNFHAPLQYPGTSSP

Chain of scrt-1 (C55C2.1) (Caenorhabditis elegans) (chain, as listed by the source): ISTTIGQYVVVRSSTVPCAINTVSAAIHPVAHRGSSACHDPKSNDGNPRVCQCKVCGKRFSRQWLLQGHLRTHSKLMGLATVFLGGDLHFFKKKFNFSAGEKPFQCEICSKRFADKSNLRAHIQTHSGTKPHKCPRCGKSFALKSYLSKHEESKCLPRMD
Chain of egl-13 (T22B7.1) (Caenorhabditis elegans) (Q23045 279-447): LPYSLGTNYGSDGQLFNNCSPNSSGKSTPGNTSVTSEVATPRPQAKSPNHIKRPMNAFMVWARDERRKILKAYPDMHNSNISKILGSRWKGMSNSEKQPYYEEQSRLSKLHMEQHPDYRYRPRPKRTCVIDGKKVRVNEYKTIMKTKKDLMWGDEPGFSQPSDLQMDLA

Sequence: AAAAATTT (double strand) [8-mer AAAAATTT]
- binding signal (PBM E-score (-0.5 to 0.5)) [1]: 0.481
- binding signal (PBM E-score (-0.5 to 0.5)) [2]: 0.478

Sequence: AAAATATT (double strand) [8-mer AAAATATT]
- binding signal (PBM E-score (-0.5 to 0.5)) [1]: 0.485
- binding signal (PBM E-score (-0.5 to 0.5)) [2]: 0.469
- binding signal (PBM E-score (-0.5 to 0.5)) [3]: 0.451

Sequence: AAAATTTC (double strand) [8-mer AAAATTTC]
- binding signal (PBM E-score (-0.5 to 0.5)) [2]: 0.47

Sequence: AAAATTTT (double strand) [8-mer AAAATTTT]
- binding signal (PBM E-score (-0.5 to 0.5)) [1]: 0.481
- binding signal (PBM E-score (-0.5 to 0.5)) [2]: 0.469

Sequence: AAACAATA (double strand) [8-mer AAACAATA]
- binding signal (PBM E-score (-0.5 to 0.5)) [4]: 0.469

Sequence: AAACCACT (double strand) [8-mer AAACCACT]
- binding signal (PBM E-score (-0.5 to 0.5)) [5]: 0.453

Sequence: AAATATTA (double strand) [8-mer AAATATTA]
- binding signal (PBM E-score (-0.5 to 0.5)) [1]: 0.481
- binding signal (PBM E-score (-0.5 to 0.5)) [2]: 0.459
- binding signal (PBM E-score (-0.5 to 0.5)) [3]: 0.456

Sequence: AAATTATT (double strand) [8-mer AAATTATT]
- binding signal (PBM E-score (-0.5 to 0.5)) [2]: 0.454

Sequence: AACAATAA (double strand) [8-mer AACAATAA]
- binding signal (PBM E-score (-0.5 to 0.5)) [4]: 0.462

Sequence: AACAATAC (double strand) [8-mer AACAATAC]
- binding signal (PBM E-score (-0.5 to 0.5)) [4]: 0.453

Sequence: AACAATAG (double strand) [8-mer AACAATAG]
- binding signal (PBM E-score (-0.5 to 0.5)) [4]: 0.485

Sequence: AACCACCT (double strand) [8-mer AACCACCT]
- binding signal (PBM E-score (-0.5 to 0.5)) [5]: 0.464

Sequence: AACCACTA (double strand) [8-mer AACCACTA]
- binding signal (PBM E-score (-0.5 to 0.5)) [5]: 0.46

Sequence: AACCACTG (double strand) [8-mer AACCACTG]
- binding signal (PBM E-score (-0.5 to 0.5)) [5]: 0.475

Sequence: AACCACTT (double strand) [8-mer AACCACTT]
- binding signal (PBM E-score (-0.5 to 0.5)) [5]: 0.476

Sequence: AATTTTTA (double strand) [8-mer AATTTTTA]
- binding signal (PBM E-score (-0.5 to 0.5)) [2]: 0.453

Sequence: ACAACAAT (double strand) [8-mer ACAACAAT]
- binding signal (PBM E-score (-0.5 to 0.5)) [4]: 0.455

Sequence: ACAACCAC (double strand) [8-mer ACAACCAC]
- binding signal (PBM E-score (-0.5 to 0.5)) [5]: 0.472

Sequence: ACACCTGT (double strand) [8-mer ACACCTGT]
- binding signal (PBM E-score (-0.5 to 0.5)) [6]: 0.468

Sequence: ACAGGTGC (double strand) [8-mer ACAGGTGC]
- binding signal (PBM E-score (-0.5 to 0.5)) [6]: 0.477

Sequence: ACAGGTGG (double strand) [8-mer ACAGGTGG]
- binding signal (PBM E-score (-0.5 to 0.5)) [6]: 0.467

Sequence: ACTGATAA (double strand) [8-mer ACTGATAA]
- binding signal (PBM E-score (-0.5 to 0.5)) [7]: 0.496
- binding signal (PBM E-score (-0.5 to 0.5)) [8]: 0.476

Sequence: AGAACAAT (double strand) [8-mer AGAACAAT]
- binding signal (PBM E-score (-0.5 to 0.5)) [4]: 0.469

Sequence: AGCAGGTG (double strand) [8-mer AGCAGGTG]
- binding signal (PBM E-score (-0.5 to 0.5)) [6]: 0.457

Sequence: AGTGGTTG (double strand) [8-mer AGTGGTTG]
- binding signal (PBM E-score (-0.5 to 0.5)) [5]: 0.492

Sequence: ATAACAAT (double strand) [8-mer ATAACAAT]
- binding signal (PBM E-score (-0.5 to 0.5)) [4]: 0.471

Sequence: ATAGCAAC (double strand) [8-mer ATAGCAAC]
- binding signal (PBM E-score (-0.5 to 0.5)) [9]: 0.489

Sequence: ATCACCAC (double strand) [8-mer ATCACCAC]
- binding signal (PBM E-score (-0.5 to 0.5)) [10]: 0.459

Sequence: ATCGCCAC (double strand) [8-mer ATCGCCAC]
- binding signal (PBM E-score (-0.5 to 0.5)) [10]: 0.49

Sequence: ATCGCCAG (double strand) [8-mer ATCGCCAG]
- binding signal (PBM E-score (-0.5 to 0.5)) [10]: 0.473
